Measurements from the domain aggregation screens of Martell et al. (2025).

Assay: soluble fraction after stress (log2 fold change); higher = more stays soluble; pooled small domains, quantitative proteomics
Details: stress: pH 4
In short: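 Aggregation propensity is read out as the fold change in how much of each domain remains soluble after acid stress. The custom small-domain libraries were pooled, held at pH 4 and analysed with high-throughput quantitative proteomics. On the log2 scale used, higher values mean more of the domain stayed soluble.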

Sequence	soluble fraction (log2)
HMPQISQDDLMEAGLIVGKEAKQRRIKLGEILGIGYVNAKQLPKRLQLFQVAKSDFEQAVQQIDG	0.134
HMGIEQVELASRVRDAVDSLPHHLREIILLSYFQKMSYNQIAETLQVPLGTVKSRLHAAVASFAQAWTQSS	-0.658
HMDGNVPSVEGKPLSGAKYILETYGYKTGTVTEVNSEDVPAGIVISQNPARGTTLANGGSVNLQVSLG	0.238
HMDFVKGDTVVFIDAFMPDHLMTIHKVQGEGILLDGNHKFALAHLIRHASTVELNAKRRLSLTEQS	-0.685
HMPYNRRYLISNADGALYTVEENGLVKLEETNLTAELFETRGMQDIPDGKLLITLHDPTILYWHDSENLFP	-2.32
HMFEYDEEEYEKLGPNADLTIKSMTDWGQSLVRKGVWSESDFEEFKIMGGTAQGLRALQKVRSYY	-1.25
HMGTSFEDIDRAVKSVRKPETDEAEKLHAGKTFKDIAETELFQKLTESFAGISDRVNEVIDLYTARAAE	0.143
HMSDPHEELMSRIARDLSIPLTRVVAEMNTIISKEFGGHIRPEGAVVILAKRSGVEFSDLLPALRENILK	-0.852
HMEQETVTVPDLVGKDVVAAQAELHEMGLSGKPDGTGTTVVSQFPVAGARVLKHTNVILYTED	0.0839
HMENLFPDYTMQDYRIVRSELSSKFKVQTVPVTTATATENKIVRQEPEAGSRITEGMTVILYYSIGPE	0.0963
HMLDSPHDDLNRKIVQMLQNDGRLPYKDIAEVLSVSEGTVRNRVQRMRDAGMLNIVALIDPMAI	-0.498
HMPEKNQITHLIRLIDDRDEFVRKRVREQLIKLGEDAIPFLEMAAKTENLEIQRIASEIIQAIIPRQ	-0.282
HMAQNILPGQKNAIKSLATSAGFSQQELDSYLSQNYGKTLNNLSQKEGASLISGLQDGSIKKP	0.0359
HMEALGLSPRQVDVLRLLVEGRSNKMIMRELELSESTVKTHLQAIFRRLGVSSRTQAVVAAARLGL	-0.418
HMEAQAHYDAIYKAHPNADSIAQSAEFKAWVDAQPSVVRNAYWQLFDPKEGGTAEQIVEVFDAFVKSS	-1.83
HMAAVSTDEEFAALGIPAEWIPVLKSNGFQTVESLKKVAPGALFNQLGGLRKKNKLEIAMPSLDQVKAWLA	-0.278
HMEPMTDQQILEGFAEFKRQNPDLMNRPATQAIVNLTLPGGTPISFRSGAGAAALNQYLESIGMRAGP	-0.0242
HMGLKWVYYTNIEPDGNKINNQKLYDILKQKFVYPVIISRDELDSMELKDLTYDSYIDVEGRYFKPYNLD	-2.03
HMIEKGSDALEKELRKNNLSINEFLTNKNIDIILDELKLKDIDDLYVNIALGKYTPNQIIKIVNK	-0.61
HMLPERIQTIVALIGHGRAMDLVREFGGQEIKFPAQEGNDTWAALVEVIGEAATRKLAAVFGGGQAPPVYI	-0.593
HMFLPGETFDVKIVKIGEGENQGVGYLDDGTMIVIENGRDHLNELARVIVTRVLQNSAGQMIFSDYEE	-1.76
HMDYKSKLQELVQTEKRTVEYKLVDESGPAHNKSFTFEVVISGIKYGSGTGASKKIAEQNAAKEALEKLA	0.144
HMVDGTPALTDLKKVSKPGRRHYTGSQEIPRVLNGLGISIVSTSKGIMTGAQARRQKVGGELLAFV	0.22
HMDERLLRLYERELQFLREGADEFAQAYPKVAGHLGLNSQSMGDPFIERLLEGLGFLTARIQLQLESEF	-0.823
HMALSVRNRMSDLLRMLGDGEFHRFENLFSLEEGRHGIVVTFLAMLELAKEQLVEISQGESLAPIYLKSLA	-0.403
HMLDEPPVSQTLTTYDREHMALYLRLLDSARDGADWREAVQILFGLDPTRDPLRSRHVHDTHLARARWM	-0.452

Sequence	soluble fraction (log2)
HMETDGGDLTPRERDVLSLIGRGLRNAEAASALGLSEHTIAGHIKSVYSKLGISTRAEAALLASRLGL	-0.261
HMPATPDATVQAVQQRLNELGYDVGSADGLMGRGTRSAIIAFQQDRGLAATGVADQALLLQLQP	-0.0545
HMKIAPRTAENQQLRKMILEIYTTSKKRVGPAKVRRMLLRDYGISISIGRVYRLMSTMNLPKMS	0.22
HMSKETTYEVLSLKGDEWQTDTIYSDRDEAIEAARNLHGDPHIDGAKVISEVYDDKTGGSKETTIFNT	-0.21
HMTNELTEIFNSIRLTKKQKELLQSNYLSLRETYFLQGKTAFNLKFKNIAGLGKSTKKVLLEFFEESIE	-0.499
HMSLTYTGKFILNHNNIDQSSFNINIYLVNKQTIIQITKPFYGNVLNIKFNEENDLIISPKQFS	-0.9
HMGGKWKLRILLALENSAQDALRYGEIKNIVSGITDMMLSQSLRELTADGLIERRQYQEIPPKVEYRLS	-0.868
HMTVLIDEQSSDGLLKITVTANTAVKSITIADELLEDKEQLEDYLILVLNKAIARANQVNQTELDAVAK	0.163
HMREKLKEYVHLLFAGTVGKEDMEQEILQNTLDRFDDWVARGFSEEDAYRKAVSGIGDIDALLG	-2.07
HMDKSFYETFEKIGHGDFDKGLNHVWQHANDGNGTATLLLSKLFLEFGDLDNFEKYLNISAEQSNPVAMKI	-0.191
HMTHANAALTPRHRLKVARLVVDEGWPVSEVAARFQVSWPTVKRWADRYRAGQSMQDRSSRP	0.228
HMSKLSVSSLSSPEVQNQLKAAGIDVNSRQYQVVMKDMMGALDGRAGYTTVSAIKNRMRQYNADGDY	0.19
HMNMKVGPVPANVVPANIKAHVSNNYSKYQIVQMMQNDKGYQVKLSNGTDLYYDKDGNILKTS	0.0948
HMNSEERVLDTASKWLVKLDEGLDESEAQVLKVWLATPLHRDTFLEMVALWDKMSVLNELADIV	-1.94
HMEEQELQLIQFPIASGSAWAGKAVRELILPPETLLVMLIRGTETMIPKGDTMVQEGDTAVLSASAYRDD	-1.61
HMSLLTPLEEARIVIEELIIPQKLTLDLLPQNSQIRKLQHEIINHYRLKGISIGDGKNRRVRIYS	-1.48
HMEAFDYLGRRTRDLLERQGWTTVPLVRDAYLAVPGGERLLQVPGFGRKSLREVRRWLWLQIGDPRFE	0.114
HMDAHYMEMKGKTGTAFTMLRPAGKIDIEGQIFDAVAEAGFIEKGEAIRVVKYENAQLIVRK	-0.32
HMTYSEEEIERDLYVRGTLYQIGDLVENKIDGTSGEIVRRGPNYVQYSDGENFYKAFLHSIQEV	-1.45
HMGKVLIYKPNMSVSDVAIRLGISNAEIIKRLMGLGVMTSINQTIDRDTIELVAMDLGFSIEN	-0.581
HMLSYFKIIKNGLVREGPASYYKIAENLEIGTIVQAFEKHDDWYLIKTHSGRIGWIVASDVTPQV	0.36
HMKHTVSVDRLQPGVFVSLGGLSWLDHPFLLNRFRLTDHDQIKVLRSLGVKEIEWDPTRSTAQPLPE	-0.724
HMRNMTDYLTIVRAVYGGLSQRQAATTYHVSRNTVSLLIRHAKNQGWLTVEDLSRADAAAFSPA	-0.0738
HMVSVPDIGEKLPDFTGTPKRLLTPLLNKNDVNIIIKGDGWVVSQKPPAGTPVTKGMTIEFTL	-0.0317
HMKSFDERQAALNELAKVIEGTGRKAEQDAEFRREQNQLMIDKIDEQLKGDLTDSQREELKKERAALARK	0.0649
HMGRKEIIVPNLLGKYAIEAGTILKNAGLLEGQAREENSDTYPAGQIMDQFPKANTPANENDKVDYVVSI	-0.202

Sequence	soluble fraction (log2)
HMTFNLDVDGDDQVTALGDGLMIIRKLFGATFAGDALTNKAISPDATRTTDEIHAYIEKGITSGVLD	-0.288
HMSGSFDVTLDYLNSLRNLYPAIDVEQEFRKMYAWLDSNPKNRKTERGIKRFITGWLGRAQDKAP	-0.9
HMGVAFAPVEKIKHTKTGNELYAVKLAGRVEAEVFGQLRQKAKEYDGYYSKFSRAFLFSTPEDAEAFRAE	0.276
HMVVYFGGPVMLERGIVLHTPDISTKGTINVSDDFALTAHKEILDNINKDTSSLQFKLAIGH	-0.337
HMPPAPGHDLTEREREVLRLLVEGLSNQEISDRLVISQSTVKNHVSSVLSKLDAANRAEAVALALKNQL	-0.547
HMSNRDNPVVLDFKKVKSTEQLDNILEEYIRENFEGYTVKGRMFSSDEGKFIIALALKDDDGKRALVYFDV	-1.06
HMGQSKNERMLELVELLNKASRSYYQDAQEIMSNYEYDRLYDELQNLEKELGITLSNSPTVN	-1.3
HMLLNPFERLTERELEIADLYAKGYGNLEIANFLSIKQNTVSTYKKRIFEKLGIDNLVELIELIKNY	-0.839
HMGSSLLSPKEREVLQLLAGNLSNKQIALAMGVSDETIKWHLRNLFGKLNAGGRKHLIDRARMLGLLAAA	-0.153
HMRPNREKDMADLEKLAPFLLQMLTNYAQMTGDEKPLNAFITRFGYAAQIRDIQDFFMGPWHPA	-0.24
HMSNMESLIGREATVIEMIPAEDVGRVKIDGDEWQAVLAREDDNEPRRDIQVGEKVIIVSYDSIILTVKTK	-1.02
HMDMNVQNYRGLSLDRAKKLISDLGLKYEVVGTGDSVVKQVPSSGSRMSKENGRIILYTENVEDA	0.278
HMPDLSAEERNIVEALQKSNDLQVNLIAVKTGMDMGTLSATLFGLEMKGLVKLMAGGTYHLI	0.191
HMDRFRYYITEDSVQRGTYPYVDETTLKRFTSQLHKYEQGMISAYGYLEYSKPLTAEQIKDYTLMPSP	-0.485
HMKFLYQQVYQDIKDKITSAQYQFGDLLPSEREIGEEYHVDRTTVRKAFSLLVDEGLVEKRAGKGSVVIS	-0.52
HMVLSVRDRMVQILDQVKTGEYKRIEDFFSADEGRTGFVVSFVAILELVKGGLLTITQSKNLAPIYVRLPN	-0.108
HMPQNVSVPDVTNMTQAEAESKLKEKNLAVGNIIPELSTTVEKDKVTRTNPESGSNVRKNSKVDIYVSQG	0.327
HMSLSIKINHESVGLRLDQFLQEHYYKQQSRSYVQHAIKEGYILVNGQSVKNGYMLKLDDLIELEAI	-0.166
HMDIYLDDINRKILHLLSQGVKTKSLRDYIDLSMSAIEKRKKHLKDLFLIEDGKDETLLSEARKKGF	-0.398
HMDKSRPVLRVGDSGDWVSKLQTALLEFGYRVAVDGVFGEHTKSAVVHFQNGRRLIADGVVGNLTWDALL	-0.968
HMSSLDTLTARETQILAEMAQGKNNAAIAAAVSVSERAVEKHTNSIFAKLGLSEEKDVNRRVMAVLLFLGR	-1.5
HMQPIQPNQAKYLDGLSSKYKGKGNHSQAAQLTALRDALNAGDHAKAREIYDKLDYEPQAEAAH	0.105
HMKITADQEIETAINYFKKSIAEKGWKGVNPDEFKQMNDYLSETFGYSATIKFQKALDEQGLMVDE	-0.429
HMKQESSEDLLNEVIDKVIDSNPDEKNRLLDGELKLVSFFMGQVMKETKGKANPGVINGLIKKKFNI	-0.748
